Consider two molecules from patent publication US20240287169A1 (AULOS BIOSCIENCE, published 2024).

As a reminder, the Kd is the equilibrium constant for the complex coming apart. In general, koff refers to the rate constant with which the complex falls apart. Usually kon stands for the rate constant with which the complex forms.

One experiment has as its target T1, Mouse IL-2 (mouse, UniProt P04351 21-169).
T1 construct: Soluble analyte in SPR; also called mIL-2
T1 sequence (looked up): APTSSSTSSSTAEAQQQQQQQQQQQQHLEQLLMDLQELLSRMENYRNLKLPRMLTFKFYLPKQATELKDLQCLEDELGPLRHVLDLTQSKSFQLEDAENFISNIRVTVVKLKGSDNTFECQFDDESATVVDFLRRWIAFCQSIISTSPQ
The experiment in a line: no assay described; stated in the methods of the LL/2 tumor model.

The target of a further experiment is T2, cynomolgus monkey IL-2 (cynomolgus monkey, UniProt Q29615 21-154).
T2 construct: also called cIL-2
The experiment in a line: SPR, multi-cycle, antibody captured, cynomolgus IL-2 analyte. The text has this:
(§1) The SPR analysis was done on Biacore […] (GE healthcare, USA) on CM5 chips (cat:br10005-30, GE healthcare, USA). The chip was crosslinked with primary capture Ab against human IgG (Cat: br-1008-39, GE healthcare, USA) or primary capture antibody against mouse IgG (Cat: BR-1008-38, GE healthcare, USA) to a target of 8000RU. After cross-linking of the primary Ab, the mouse and human tested antibodies were immobilized on the primary Ab to a target of approximately additional 500RU. […] At the end of each cycle the analyte and tested antibody were stripped from the chip using 3M MgCl₂ and new tested Ab was loaded on the chip as described above. When indicated, instead of stripping the antibodies, kinetics was determined by injecting series of analyte concentrations in one cycle by the Single-cycle kinetics method. Binding kinetics were determined by the 1:1 Binding model using the Biacore T200 evaluation software.
Background: Surface plasmon resonance follows binding to a sensor surface in real time, without labels.

The target of experiment [1] is T3, Human IL-2 (human, UniProt P60568 21-153). In words: cell-based or functional assay.
The target in experiment [2] is T3, Human IL-2. In words: SPR (Biacore T200), AU-007 captured on a CM5 chip, h-IL2 as analyte at 0.0625-10 nM, multi-cycle, 1:1 binding model. The method, then: Affinity and epitope binding site was assessed using Surface Plasmon Resonance (SPR). […] Subsequently, soluble hCD25 was injected followed by the injection of soluble hCD122. […] Diagrams represent SPR sensorgram traces of complex formation of IL-2R/Cytokine.
The chip was crosslinked with a human antibody capture kit (BR100839, GE Healthcare, USA) according to the manufacturer's protocol to target 3000-4000 RU. […] Between each cycle, all channels underwent regeneration using 3M MgCl₂. Binding kinetics were determined by the 1:1 Binding model using the Biacore […] evaluation software, version 3.1.

For experiment [3], the target named is T3, Human IL-2. In words: SPR, multi-cycle, antibody captured, hIL-2 analyte.
Source text: as §1

The next experiment deals with T4, BDG17.053/hIL-2 complex (human, UniProt P60568 21-153).
T4 construct: Captured humanized IgG1 saturated with 50 nM hIL-2 on the SPR chip; also called humanized IgG-hIL-2 complex
In words: SPR, captured antibody saturated with hIL-2, CD25 injected.

For the next experiment, the target named is T5, BDG17.038/hIL-2 complex (human, UniProt P60568 21-153).
T5 construct: Captured humanized IgG1 saturated with 50 nM hIL-2 on the SPR chip; also called humanized IgG-hIL-2 complex
In words: SPR, antibody captured on CM5 chip and loaded with 50 nM hIL-2; 1000 nM CD25 injected before CD122. The method, then:
(§2) Subsequently, running buffer was injected for 60 seconds to reach a steady baseline, and then 1000 nM of CD122 was injected for 30 seconds at a flow rate of 30 ul/min. To test CD122 binding, the same experiment was repeated in reverse order, with CD122 injected first flowed by injection of CD25.

For the next experiment, the target named is T6, BDG17.023-hIL-2 complex (human, UniProt P60568 21-153).
T6 construct: Non-covalent complex made on the SPR chip: immobilized BDG17.023 IgG1 saturated with 50 nM hIL-2; also called BDG17.023-IL-2 complex
In words: SPR, BDG17.023 on CM5 chip saturated with 50 nM hIL-2; 1000 nM CD25 injected after CD122.

Experiment [4] concerns the target T7, BDG17.069 (AU-007)/hIL-2 complex (human, UniProt P60568 21-153).
T7 construct: On the SPR chip: captured AU-007 saturated with 50 nM hIL-2; In the HEK reporter assay: hIL-2 titrated in the presence of 200 nM AU-007; also called IL2+AU-007; A/IL-2
In words: SPR, AU-007 captured on CM5 chip and loaded with 10nM hIL-2; 1000nM hCD25 injected before hCD122 (1st set) and after hCD122 (2nd set).

Another experiment has as its target T8, biotinylated human CD25 (human, UniProt P01589 22-213, limits assumed, biotinylated).
T8 construct: Captured on a streptavidin-coated chip; also called biotinylated hCD25
T8 sequence (looked up): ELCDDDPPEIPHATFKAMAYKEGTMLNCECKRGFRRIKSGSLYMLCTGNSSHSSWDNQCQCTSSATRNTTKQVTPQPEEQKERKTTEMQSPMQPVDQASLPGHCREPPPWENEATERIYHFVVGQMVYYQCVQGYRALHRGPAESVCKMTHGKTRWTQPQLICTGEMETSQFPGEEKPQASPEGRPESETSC
In words: SPR, biotinylated hCD25 on the chip, soluble hCD25 injected as a control.

Experiment [5] addresses T9, Fc-tagged CD122 (extracellular domain) (human, UniProt P14784 27-240).
T9 construct: extracellular domain; Captured on an anti-human Fc chip; also called Fc tagged hCD122; not shown: Fc tag
T9 sequence (looked up): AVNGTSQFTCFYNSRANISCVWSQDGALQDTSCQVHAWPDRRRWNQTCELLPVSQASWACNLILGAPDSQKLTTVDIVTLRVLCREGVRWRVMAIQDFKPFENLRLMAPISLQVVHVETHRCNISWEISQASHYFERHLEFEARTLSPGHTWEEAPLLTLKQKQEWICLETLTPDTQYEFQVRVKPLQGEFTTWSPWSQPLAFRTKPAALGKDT
The experiment in a line: SPR, Fc tagged hCD122 captured on a CM5 chip, soluble hCD25 injected. The method, then: Affinity and epitope binding site was assessed using Surface Plasmon Resonance (SPR). […] […] […] Diagrams represent SPR sensorgram traces of complex formation of IL-2R/Cytokine.

In a further experiment the target is T10, BDG17.054/hIL-2 complex (human, UniProt P60568 21-153).
T10 construct: Captured humanized IgG1 saturated with 50 nM hIL-2 on the SPR chip; also called humanized IgG-hIL-2 complex
In words: SPR, antibody captured on CM5 chip and loaded with hIL-2; 1000 nM CD25 injected before CD122 (first set) and after CD122 (second set). The method, then: as §2

Another experiment concerns the target T11, BDG17.043/hIL-2 complex (human, UniProt P60568 21-153).
T11 construct: Captured humanized IgG1 saturated with 50 nM hIL-2 on the SPR chip; also called humanized IgG-hIL-2 complex
In words: SPR, antibody captured on CM5 chip and loaded with 50 nM hIL-2; 1000 nM CD25 injected before CD122.

T3 sequence (P60568 21-153 limits assumed): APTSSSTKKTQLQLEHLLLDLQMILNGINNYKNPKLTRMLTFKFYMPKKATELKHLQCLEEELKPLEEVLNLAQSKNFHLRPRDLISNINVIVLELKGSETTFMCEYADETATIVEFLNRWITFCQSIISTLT
T2 sequence (Q29615 21-154 limits assumed): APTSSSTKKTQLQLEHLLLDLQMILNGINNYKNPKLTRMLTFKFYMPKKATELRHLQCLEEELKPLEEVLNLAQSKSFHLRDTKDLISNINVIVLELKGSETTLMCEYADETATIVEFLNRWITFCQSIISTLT
T11 sequence (P60568 21-153 limits assumed, one chain of several): as the sequence (P60568 21-153 limits assumed) above
T10 sequence (P60568 21-153 limits assumed, one chain of several): as the sequence (P60568 21-153 limits assumed) above
T4 sequence (P60568 21-153 limits assumed, one chain of several): as the sequence (P60568 21-153 limits assumed) above
T5 sequence (P60568 21-153 limits assumed, one chain of several): as the sequence (P60568 21-153 limits assumed) above
T7 sequence (P60568 21-153 limits assumed, one chain of several): as the sequence (P60568 21-153 limits assumed) above
T6 sequence (P60568 21-153 limits assumed, one chain of several): as the sequence (P60568 21-153 limits assumed) above

B1: BDG17.069 (AU-007) (antibody, human IgG1, kappa, L234A L235A, V domains shown)
VH: QVQLVQSGAEVKKPGSSVKVSCKASGYSITDDLIHWVRQAPGQGLEWMGWIDPEDGETNYAQKFQGRVTLTADTSTSTAYMELSSLRSEDTAVYYCARSLDSTWIYPFAYWGQGTLVTVSS
VL: DIVMTQSPDSLAVSLGERATINCKSSQSLLRRGNQKNHLAWYQQKPGQPPKLLIYDASTGQSGVPDRFSGSGSGTDFTLTISSLQAEDVAVYYCLQSYITPPTFGAGTKVEIKR
notes: Human IgG1-LALA
B1: the binding result with Mouse IL-2 is reported as “no binding”. In the experiment with cynomolgus monkey IL-2, this molecule showed a Kd of 0.0117 nM, an off-rate (koff) of 0.000584 s⁻¹ and a kon of 4.98e+07 M⁻¹ s⁻¹. In the experiment with Human IL-2 [1], the “IC50 (read off the curve) (%pSTAT5 in CD4+ Tregs of hPBMC stimulated with hIL-2)” value was around 1000 pM. In the experiment with Human IL-2 [2], this molecule came in with a Kd of 0.0108 nM, a koff of 0.000487 s⁻¹ and an on-rate (kon) of 4.5e+07 M⁻¹ s⁻¹. In addition, in the experiment with Human IL-2 [3], binding was put at a Kd of 0.0108 nM, the off-rate constant (koff) stood at 0.000487 s⁻¹ and the kon was 4.5e+07 M⁻¹ s⁻¹.

B2: human CD25 (soluble) (receptor, UniProt P01589 22-213, looked up)
chain: T8 sequence (looked up)
notes: Injected as soluble analyte at 1000 nM / 1 uM; also called hCD25; IL-2Rα
For B2, the binding result was “no binding (tested: 1000 nM)” in the experiment with BDG17.053/hIL-2 complex; “no binding (tested: 1000 nM)” with BDG17.038/hIL-2 complex; “no binding (tested: 1000 nM)” with BDG17.023-hIL-2 complex; “no binding (tested: 1000 nM)” in experiment [4]; “no binding (tested: 1 uM)” with biotinylated human CD25; “no binding (tested: 1 uM)” in [5]. Moreover, the binding result in the experiment with BDG17.054/hIL-2 complex and in the experiment with BDG17.043/hIL-2 complex was “no binding (tested: 1000 nM)” in each case.
